Assays:
[1] = tested on: DV2; format: cell-based, dengue virus; conditions: protein 25 μg/mL pre-incubated with virus 1 hour at 25° C.
Description: (§1) FIG. 21. Chromatographic profile of the purification of the A2MR using affinity chormatography with immobilized A2M (A) and SDS-PAGE analysis of fractions eluted using a 5-15% gradient gel (B). Effect of the pre-incubation of chromatography fractions with DV2 on the infection of Vero cells (C). The plaque reduction neutralization assay was performed as described in FIG. 20. (D) Mice protection assay using the DV-induced encephalitis model.
To this aim, a viral preparation containing 100 infective viral particles was pre-incubated with the different fractions at a protein concentration of 25 μg/mL for 1 hour at 25° C. Next, the virus was added to Vero cell monolayers and infection was allowed to occur for 45 minutes at 37° C. Afterwards virus/protein mixtures were removed, the cells were washed with fresh medium and finally the cells were incubated for 5 days at 37° C. in high density medium.

[2] = tested on: DV2; experiment: Mice protection assay using the DV-induced encephalitis model; format: in vivo, Balb/C mice; conditions: intra-cranial lethal dosis of DV2 (FIG. 21D)
Description: as §1
FIG. 22. Mice protection assay using the DV-induced encephalitis model. PepNR GAGs binding: peptide formed by a sequence fragment of binding to glycosaminoglycans and a non-related sequence fragment.
Groups of 12 adult Balb/C mice (20 g average body weight) were anesthesized, inoculated by intracranial injection with lethal dosis of DV2 and observed daily for 21 days. The mixtures of peptides with the virus were inoculated in the same way. The volume of the sample inoculated was 20 μL.
The mouse model of dengue encephalitis was used to investigate the potential of the peptide HDIII3CL to protect against DV2 infection. A group of 12 mice were inoculated with lethal dosis of DV2 in combination with 15 μg and 1.5 μg of HDIII3CL peptide. As negative control was used a peptide composed by fragment of 14 aminoacids of a sequence with known heparin binding activity followed by 16 aminoacids of a sequence non-related to the envelope protein of DV. […]

[3] = biological target: T1, DIIIE2J (DIII from protein E of DV2) (Dengue virus type 2, UniProt P07564); experiment: Direct binding between DIIIE2J and A2M measured by Biacore; parameters: species or system DV2 strain Jamaica 1409; conditions: restated in example 10
T1 construct: made in house; host or cells: Escherichia coli BL21(DE3)
T1 sequence (P07564 568-687, looked up, natural form): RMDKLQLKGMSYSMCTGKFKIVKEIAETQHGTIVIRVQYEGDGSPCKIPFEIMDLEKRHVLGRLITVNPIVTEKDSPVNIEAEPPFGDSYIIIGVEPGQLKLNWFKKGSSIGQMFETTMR
Description: FIG. 6. Direct binding between DIIIE2J and A2M, measured by Biacore. Response curves obtained during and after the injection of (B) Monoclonal antibodies against DV serotype 2 (3H5) and against all FV (4G2); (C) Polyclonal mouse antibody preparations obtained by immunization with DV1 and DV2, including pre-immune sera and (D) A2M dilutions, at concentrations from 0.3 μMol/L to 3 μMol/L. The run was performed on PBS pH 7.4 at 25° C. The different A2M dilutions were loaded at a flow of 5 μL/min for 20 min. The response is represented in resonance units (RU) corrected for unspecific binding using the response from the channel without immobilized protein (less than 5% of the specific signal).
A cm5 chip (Biacore, Sweden) was used for the covalent immobilization of the DIIIE2J and LRP1 proteins. The immobilization was carried out at 25° C., with a flow of 5 μL/min and using HBS (Biacore, Sweden) as running buffer. The surface of the chip was activated by loading 35 μL of 0.2 Mol/L […] (EDC) and 0.05 Mol/L N-hydroxysuccinimide (NHS). Afterwards the proteins, dissolved in 10 mM sodium acetate buffer pH 4.5, were loaded into the system. At the end of the immobilization, 35 μL of 1 M ethanolamine pH 8 were loaded into the system in order to block any remaining free activated groups. The channel to be used as a negative control in each case received only the activating injections with the EDC:NHS solution and the blocking with ethanolamine, employing the same flow and injection volume. The results were analyzed using the BIAevaluation ver. 4.1 software application package (Biacore, Sweden).
In order to estimate the strength of the interaction between DIIIE2J and human A2M, 1600 RU of DIIIE2J were covalently immobilized on a CM5 chip (channel 1, FIG. 6A) (Biacore, Sweden), following the procedure described in the Materials and Methods section. […]

[4] = tested on: DV; experiment: Inhibition of the infection of Vero cells with DV by pre-incubation of the virus with A2M; format: cell-based, dengue virus; conditions: stated to correspond with the affinity constant for DIIIE2J
Description: (§2) FIG. 20. Inhibition of the infection of Vero cells with DV by pre-incubation with A2M. Viral preparations were incubated 1 h at 25° C. (A and C) or the indicated time (B) with the proteins i. e. activated A2M (A2Mact), non-activated A2M (A2M no act) and a non-related protein (NR). The mixtures of the proteins with the virus were added to monolayers of Vero cells and incubated for 1 h at 37° C. The cell monolayers were washed to eliminate non-bound virus. Next, medium MEM supplemented with non-essential amino acids and 1% FBS, 1% CMC was added and the cells were incubated for 5 days at 37° C. in a CO2 incubator. To visualize the viral plaques, Vero cells were stained using Naphtol Blue Black. All experimental points were performed on duplicates.
To obtain further evidences of the interaction of DV with A2M, the two variants of the protein i.e. activated and non-activated were used in assays of inhibition of infection of Vero cells. The viral preparation was incubated with solutions of activated A2M of higher concentrations than the physiological concentrations reached by this variant of the protein. Solutions of equimolar concentration of non-activated A2M and a non-related protein were used as negative controls. […]

[5] = tested on: serotype 1 of DV; experiment: as above; format: cell-based, dengue virus; conditions: FIG. 20C
Description: as §2

[6] = tested on: serotype 3 of DV; experiment: as above; format: cell-based, dengue virus; conditions: FIG. 20C
Description: as §2

[7] = tested on: Vero cells; experiment: Binding of fluoresceinated proteins to the surface of Vero cells (flow cytometry); format: cell-based, monkey; conditions: fluoresceinated proteins (FIG. 7A)
Description: FIG. 7. Inhibition of the binding of DIIIE2J to Vero cells by A2M and RAPR13. The pre-fixed cells were incubated with the fluoresceinated proteins, and the intensity of the fluorescence due to binding of the fluoresceinated ligands to the cells was measured by flow cytometry. Each experimental point represents data gathered from a minimum of 20 000 cells. (A) Binding of A2M and RAPR13 to the cells. The depicted values correspond to the average of the intensity of the fluorescence at each point of the assay minus the fluorescence obtained with untreated cells. (B) and (C) The cells were incubated with fluoresceinated DIIIE2J in the presence or absence of the non-fluoresceinated ligands, using the molar ratio indicated on each case. The % binding was calculated from the ratio of the average intensity of the fluorescence of the cells incubated with the mixture of fluoresceinated DIIIE2J plus the proteins, between that of the cells incubated only with fluoresceinated DIIIE2J.
In the case of cultured Vero cells, they were detached from the surface of the culture flask without using proteases, by incubation with PBS pH 7.4, 5 mM EDTA for 10 min. at 37° C., gently tapping the outside of the flask.
The cells, collected and washed as described above, were incubated in fixing solution (PBS pH 7.4, 2% paraformaldehyde, 0.01% NaN3, 1 mM CaCl2, 1 mM MgCl2 for 30 min at 4° C., and the fixing solution was then eliminated by centrifugation at 350×g for 5 min a 4° C. […] The intensity of the fluorescence was quantified by flow cytometry on a PAS III cytometer (Partec, Germany). The values for each experimental point were calculated from measurements on a minimum of 20 000 cells.
Given that this cell line is derived from monkey kidney cells and that the ligands for the A2MR receptor used in the assays are of human origin, a preliminary and necessary step was the corroboration of the binding of the RAPR13 and A2M MeNH2 proteins to Vero cells. With this aim, these proteins were fluoresceinated, and their binding to the surface of Vero cells was measured using flow cytometry. […]

Purified A2MR: α-chain of the A2MR receptor purified from human plasma by affinity chromatography on immobilized MeNH2_A2M
neutralization of the infection of DV2 [1]: potent neutralization | protective effect in mice encephalitis model [2]: significative protective effect

B1: activated A2M: purified human A2M activated by incubation with methylamine (protein)
chain: SVSGKPQYMVLVPSLLHTETTEKGCVLLSYLNETVTVSASLESVRGNRSLFTDLEAENDVLHCVAFAVPKSSSNEEVMFLTVQVKGPTQEFKKRTTVMVKNEDSLVFVQTDKSIYKPGQTVKFRVVSMDENFHPLNELIPLVYIQDPKGNRIAQWQSFQLEGGLKQFSFPLSSEPFQGSYKVVVQKKSGGRTEHPFTVEEFVLPKFEVQVTVPKIITILEEEMNVSVCGLYTYGKPVPGHVTVSICRKYSDASDCHGEDSQAFCEKFSGQLNSHGCFYQQVKTKVFQLKRKEYEMKLHTEAQIQEEGTVVELTGRQSSEITRTITKLSFVKVDSHFRQGIPFFGQVRLVDGKGVPIPNKVIFIRGNEANYYSNATTDEHGLVQFSINTTNVMGTSLTVRVNYKDRSPCYGYQWVSEEHEEAHHTAYLVFSPSKSFVHLEPMSHELPCGHTQTVQAHYILNGGTLLGLKKLSFYYLIMAKGGIVRTGTHGLLVKQEDMKGHFSISIPVKSDIAPVARLLIYAVLPTGDVIGDSAKYDVENCLANKVDLSFSPSQSLPASHAHLRVTAAPQSVCALRAVDQSVLLMKPDAELSASSVYNLLPEKDLTGFPGPLNDQDDEDCINRHNVYINGITYTPVSSTNEKDMYSFLEDMGLKAFTNSKIRKPKMCPQLQQYEMHGPEGLRVGFYESDVMGRGHARLVHVEEPHTETVRKYFPETWIWDLVVVNSAGVAEVGVTVPDTITEWKAGAFCLSEDAGLGISSTASLRAFQPFFVELTMPYSVIRGEAFTLKATVLNYLPKCIRVSVQLEASPAFLAVPVEKEQAPHCICANGRQTVSWAVTPKSLGNVNFTVSAEALESQELCGTEVPSVPEHGRKDTVIKPLLVEPEGLEKETTFNSLLCPSGGEVSEELSLKLPPNVVEESARASVSVLGDILGSAMQNTQNLLQMPYGCGEQNMVLFAPNIYVLDYLNETQQLTPEVKSKAIGYLNTGYQRQLNYKHYDGSYSTFGERYGRNQGNTWLTAFVLKTFAQARAYIFIDEAHITQALIWLSQRQKDNGCFRSSGSLLNNAIKGGVEDEVTLSAYITIALLEIPLTVTHPVVRNALFCLESAWKTAQEGDHGSHVYTKALLAYAFALAGNQDKRKEVLKSLNEEAVKKDNSVHWERPQKPKAPVGHFYEPQAPSAEVEMTSYVLLAYLTAQPAPTSEDLTSATNIVKWITKQQNAQGGFSSTQDTVVALHALSKYGAATFTRTGKAAQVTIQSSGTFSSKFQVDNNNRLLLQQVSLPELPGEYSMKVTGEGCVYLQTSLKYNILPEKEEFPFALGVQTLPQTCDEPKAHTSFQISLSVSYTGSRSASNMAIVDVKMVSGFIPLKPTVKMLERSNHVSRTEVSSNHVLIYLDKVSNQTLSLFFTVLQDVPVRDLKPAIVKVYDYYETDEFAIAEYNAPCSKDLGNA
Kd [3]: 100 nM | IC50 [4]: ~100 nM | infection of Vero cells by serotype 1 of DV [5]: inhibited infection | infection of Vero cells by serotype 3 of DV [6]: inhibited infection | binding to the surface of Vero cells [7]: concentration-dependant and saturable binding behavior

From patent US8420311B2, “Method to block the infection by flaviviruses, molecules and uses” (Centro de Ingenieria Genetica y Biotecnologia, priority 2006, dated 2013)
